Measured values from publication PMC11018632, “The CB1 receptor interacts with cereblon and drives cereblon deficiency-associated memory shortfalls” (EMBO Molecular Medicine, 2024).

T1: 5-IAF-labelled 6xHis-tagged human CB1R carboxy-terminal domain (hCB1R-CTD, amino acids 400-472) (human, UniProt P21554 400-472, labelled with 5-(iodoacetamido)fluorescein (5-IAF))
T1 chain: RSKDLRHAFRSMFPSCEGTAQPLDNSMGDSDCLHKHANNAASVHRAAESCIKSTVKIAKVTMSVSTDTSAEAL


How the values were obtained:
[1] = target: T2, 6xHis-tagged human cereblon (hCRBN), recombinant (human, UniProt Q96SW2 1-442); assay: fluorescence polarisation; saturation binding; constant 100 nM 5-IAF-hCB1R-CTD and increasing amounts of hCRBN (~0-100 µM); fitted to a one-site equation for Kd; conditions: both partners purified
T2 construct: cereblon/CRBN, human; human CRBN cDNA inserted in the pBH4 vector; the introduction speaks of the 442 amino-acid protein; No tag cleavage is described; also called His6-tagged CRBN; unlabelled human CRBN

[2] = target: T1, 5-IAF-labelled 6xHis-tagged human CB1R …; assay: FP

| binding result [1] | Kd [2] [nM] | Binder |
| --- | --- | --- |
| binds | – | 5-IAF-labelled 6xHis-tagged human CB1R carboxy-terminal domain (hCB1R-CTD, amino acids 400-472) (domain or fragment, UniProt P21554 400-472, looked up, labelled with 5-(iodoacetamido)fluorescein (5-IAF), type-1 cannabinoid receptor (CB1R), human, carboxy-terminal domain, amino acids 400-472; The construct was made in earlier work (Costas-Insua et al, 2021); The results section gives aa 408-472 for the CTD of the earlier proteomic screen; also called 5-IAF-hCB1R-CTD; His6-tagged CB1R-CTD) RSKDLRHAFRSMFPSCEGTAQPLDNSMGDSDCLHKHANNAASVHRAAESCIKSTVKIAKVTMSVSTDTSAEAL |
| – | 2810 | 6xHis-tagged human cereblon (hCRBN), recombinant (natural protein) MAGEGDQQDAAHNMGNHLPLLPAESEEEDEMEVEDQDSKEAKKPNIINFDTSLPTSHTYLGADMEEFHGRTLHDDDSCQVIPVLPQVMMILIPGQTLPLQLFHPQEVSMVRNLIQKDRTFAVLAYSNVQEREAQFGTTAEIYAYREEQDFGIEIVKVKAIGRQRFKVLELRTQSDGIQQAKVQILPECVLPSTMSAVQLESLNKCQIFPSKPVSREDQCSYKWWQKYQKRKFHCANLTSWPRWLYSLYDAETLMDRIKKQLREWDENLKDDSLPSNPIDFSYRVAACLPIDDVLRIQLLKIGSAIQRLRCELDIMNKCTSLCCKQCQETEITTKNEIFSLSLCGPMAAYVNPHGYVHETLTVYKACNLNLIGRPSTEHSWFPGYAWTVAQCKICASHIGWKFTATKKDMSPQKFWGLTRSALLPTIPDTEDEISPDKVILCL |
